Experimental data from patent publication US20240036044A1 (GEMINA LABORATORIES, published 2024).

Legend:
[1] = biological target: Monoclonal antibody against the SARS-CoV-2 Spike protein (A02038, Genscript)
[2] = biological target: Monoclonal antibody against the SARS-CoV-2 Nucleocapsid protein (A02039, Genscript)
[3] = biological target: T1, recombinant SARS-CoV-2 Nucleocapsid protein antigen (Z03488, Genscript) (SARS-CoV-2, UniProt P0DTC9 1-419); assay: dot blot dipstick, gold nanoparticles with EMT-003 alone
T1 construct: also called SARS-CoV-2 Nucleocapsid antigen; NC

[4] = biological target: T2, recombinant SARS-CoV-2 Spike protein antigen (Z03501, Genscript) (SARS-CoV-2, UniProt P0DTC2 16-685); assay: dot blot dipstick assay, gold nanoparticle conjugate without antibody
T2 construct: also called SARS-CoV-2 Spike antigen; S antigen

B1: gold-binding fusion protein EMT003 (protein G' - linker - gold-binding peptide EMT015) (other)
chain: MTYKLILNGKTLKGETTTEAVDAATAEKVFKQYANDNGVDGEWTYDDATKTFTVTEKPEVIDASELTPAVTTYKLVINGKTLKGETTTEAVDAATAEKVFKQYANDNGVDGEWTYDDATKTFTVTEKPEVIDASELTPAVTTYKLVINGKTLKGETTTKAVDAETAEKAFKQYANDNGVDGVWTYDDATKTFTVTEGGGGSGGGGSGGGGSASGGGMHGKTQATSGTIQSMHGKTQATSGTIQSMHGKTQATSGTIQSMHGKTQATSGTIQSMHGKTQATSGTIQSMHGKTQATSGTIQSMHGKTQATSGTIQS
notes: also called EMT-03; Gold fusion protein
Q: Which Kd [1] does the source give for B1 here?
A: 0.192 nM

Q: What about the koff [1] of the same binder?
A: 0.000103 s⁻¹

Q: What about the kon [1] of the same binder?
A: 537000 M⁻¹ s⁻¹

Q: What about the Kd [2] of the same binder?
A: 0.258 nM

Q: What about the koff [2] of the same binder?
A: 0.000149 s⁻¹

Q: What about the kon [2] of the same binder?
A: 577000 M⁻¹ s⁻¹

Q: Does B1 bind [3]?
A: no binding

Q: Does B1 bind [4]?
A: no binding (tested: 0.5 µg antigen spotted)
